The record followed here is patent publication US20050059087A1, “Antibodies directed to the deletion mutants of epidermal growth factor receptor and uses thereof” (priority 2003, published 2005).

The target of test [1] is T1, NR6 Wt cells (NR6 cells expressing EGF receptor) (Homo sapiens, UniProt P00533).
T1 construct: expressed in transfected cells; host or cells: NR6 murine fibroblasts (NR6 Wt)
Kind of test: Native cell binding assay by FMAT, NR6 Wt cells. The note with it: total fluorescent intensity. Format: cell-based.

The target of test [2] is T2, EGFRvIII-peptide-OVA (Homo sapiens, UniProt P00533, DELINS30-297G).
T2 construct: purchased R&D Systems (custom synthesis); host or cells: synthetic peptide
Kind of test: B-cell culture supernatant ELISA on EGFRvIII-peptide-OVA. Format: binding. As to conditions: Table 3.8. The method, then: B-cells from the above-discussed animals were harvested and cultured. Those secreting EGFRvIII-peptide specific antibodies were isolated as described in Babcook et al., Proc. Natl. Acad. Sci. USA, 93:7843-7848 (1996). ELISA was used to identify primary EGFRvIII-peptide-OVA-specific wells. About 5 million B-cells were cultured from XenoMouse animals in 245 96 well plates at 500 or 150 or 50 cells/well, and were screened on EGFRvIII-peptide-OVA to identify the antigen-specific wells.
Background: In an ELISA, binding on a coated surface is turned into a signal by an enzyme label.

The target of test [3] is T3, OVA (Gallus gallus, UniProt P01012).
T3 sequence (P01012 1-386): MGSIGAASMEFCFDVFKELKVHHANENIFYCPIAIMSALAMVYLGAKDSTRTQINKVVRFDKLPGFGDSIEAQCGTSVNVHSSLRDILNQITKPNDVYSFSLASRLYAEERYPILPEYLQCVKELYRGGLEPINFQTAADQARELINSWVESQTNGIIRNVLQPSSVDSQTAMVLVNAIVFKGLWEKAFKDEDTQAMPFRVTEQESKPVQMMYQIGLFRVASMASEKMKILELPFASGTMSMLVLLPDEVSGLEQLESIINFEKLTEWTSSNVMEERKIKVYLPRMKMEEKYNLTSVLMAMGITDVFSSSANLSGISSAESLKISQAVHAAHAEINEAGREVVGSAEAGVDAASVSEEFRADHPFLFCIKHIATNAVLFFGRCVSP
Kind of test: B-cell culture supernatant control ELISA on OVA. As to conditions: Table 3.8. Format: binding. The text has this:
244 of EGFRvIII-peptide-OVA-Elisa positive wells of OD>0.5 were screened again on EGFRvIII-peptide-OVA and on OVA to confirm that they were EGFRvIII-peptide specific.

The target of test [4] is T4, native form of EGFRvIII stably expressed on NR6 cells (NR6 M cells) (Homo sapiens, UniProt P00533, DELINS30-297G).
T4 construct: expressed in transfected cells; host or cells: NR6 murine fibroblasts (NR6 M)
Kind of test: Native cell binding assay by FMAT, NR6 M cells. The note with it: total fluorescent intensity. The test is classed as cell-based.

In test [5] the target is T5, EGFRvIII receptor on NR6 M cells (Homo sapiens, UniProt P00533, DELINS30-297G).
T5 construct: expressed in transfected cells; host or cells: NR6 murine fibroblasts (NR6 M)
Kind of test: Internalization assay of B-cell culture supernatants (FMAT, glutathione). The test is classed as cell-based. How it is done:
The top 60 native binding B cell culture supernatants were further assayed for their ability to internalize the receptor. NR6 M cells were seeded at 8000 cells/well into 96 well FMAT plates and incubated overnight. Media was removed and 10-15 μl B-Cell culture supernatant in a total volume of 30 μl media, in duplicate was added. Next, 15 μl of secondary antibody (SS Alexa 647 anti-human IgG Fab at 1.5 μg/ml final concentration) was added and the mixture was incubated on ice for 1 hr. An irrelevant B-Cell Culture supernatant was used to see the effect of the culture media. Human anti-EGFRvIII mAb 13.2.1 was used as a positive control starting at 1 μg/ml (final concentration) and negative control was PK 16.3.1 (human anti-KLH IgG2 antibody) at the same concentration. After incubation, the cells were washed with cold PBS, 50 μl media was added to all of the wells, one of the duplicates were incubated at 37° C. for 30 mins while the other duplicate remained on ice. After the incubations media was removed, 100 ul of cold 50 mM glutathione was added to the set incubated at 37° C. and 100 μl of cold media added to the other set, both sets were then left on ice for 1 hr. The cells were then washed with 100 μl cold PBS and then fixed with 1% paraformaldehyde and read in FMAT. The results were expressed as % intermalized, calculated as total fluorescence in the presence of glutathione/total fluorescence in the absence of glutathione X 100.

B1: 129A7: B-cell culture supernatant well (antibody, V domains shown)
VH: QVQLVESGGGVVQPGRSLRLSCAASGFTLSSYGMHWVRQAPGKGLEWVAVMSYDGSKEDYADSVKGRFTISRDNSENTLYLQMNSLRAEDTAVYYCVSEGYCSSRSCYKYYYYGMDVWGQGTTVTVSS
VL: DIVMTQSPLSLPVTPGEPASISCRSSQSLLYRNGNNYLDWYLQKPGQSPQLLIYLGSNRASGVPDRFSGSGSGTDFTLNISRVEAEDVGHYYCMQALQTPRTFGQGTKVEIK
As to B1, the “FMAT native binding to NR6 Wt cells” value in test [1] was found to be 0. Further, in test [2], the “1′ VIII-pep-OVA OD” value came out at 2.1501 and the “2′ VIII-pep-OVA OD” value is listed as 2.8208. The “OVA OD” value in test [3] was 0.1515. In test [4], the “FMAT native binding to NR6 M cells” value was determined as 84024. Besides, in test [5] (37° C. for 30 mins, then 50 mM glutathione), the “With glutathione FL1 × count” value was 8708. The “% internalized, (glut+/glut−) × 100” value in test [5] (NR6 M cells, 37° C. 30 mins) was 31.5%. The “No glutathione FL1 × count” value in test [5] (set kept on ice, no glutathione) came out at 27648.
